Measured values as given in the supplement of paper PMC10065799, “High-throughput profiling of sequence recognition by tyrosine kinases and SH2 domains using bacterial peptide display” (eLife, 2023).

Columns and labels:
EPHB2 = EPHB2 (UniProt P29323); assay: phosphorylation enrichment, bacterial display (enrichment ratio); higher = better substrate or ligand; peptides without Tyr show the background
FGFR3 = FGFR3 (UniProt P22607); assay: as above
FGFR1 = FGFR1 (UniProt P11362); assay: as above
Jak2 = Jak2 (UniProt O60674); assay: as above
EPHB1 = EPHB1 (UniProt P54762); assay: as above
MERTK = MERTK (UniProt Q12866); assay: as above
c-Src = assay: as above
Fer (mouse) = assay: as above
c-Abl (mouse) = assay: as above
Fyn = Fyn (UniProt P06241); assay: as above
Hck = Hck (UniProt P08631); assay: as above
Fes = Fes (UniProt P07332); assay: as above
AncSZ = assay: as above
SHP2-C SH2 = assay: SH2 binding enrichment of the phosphorylated peptide, bacterial display (enrichment ratio); higher = better substrate or ligand; peptides without Tyr show the background
Grb2 SH2 = Grb2 SH2 (UniProt P62993); assay: as above
c-Src SH2 = assay: as above
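Throughout, for SH2 binding enrichment of the phosphorylated peptide, bacterial display: peptide library displayed on the E. coli surface as eCPX fusions, selected cells deep-sequenced, score is each peptide's frequency after selection divided by its frequency in the input.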
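Throughout, for phosphorylation enrichment, bacterial display: 11-residue human phosphosite peptides and single-mutation variants displayed on the E. coli surface, counted by deep sequencing, each peptide's frequency after selection divided by its frequency in the unselected input library; frequency after pTyr selection over input frequency; kinase dosed for 20-30% of maximal phosphorylation in three min.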

EPHB2, sequence (P29323 whole entry, looked up): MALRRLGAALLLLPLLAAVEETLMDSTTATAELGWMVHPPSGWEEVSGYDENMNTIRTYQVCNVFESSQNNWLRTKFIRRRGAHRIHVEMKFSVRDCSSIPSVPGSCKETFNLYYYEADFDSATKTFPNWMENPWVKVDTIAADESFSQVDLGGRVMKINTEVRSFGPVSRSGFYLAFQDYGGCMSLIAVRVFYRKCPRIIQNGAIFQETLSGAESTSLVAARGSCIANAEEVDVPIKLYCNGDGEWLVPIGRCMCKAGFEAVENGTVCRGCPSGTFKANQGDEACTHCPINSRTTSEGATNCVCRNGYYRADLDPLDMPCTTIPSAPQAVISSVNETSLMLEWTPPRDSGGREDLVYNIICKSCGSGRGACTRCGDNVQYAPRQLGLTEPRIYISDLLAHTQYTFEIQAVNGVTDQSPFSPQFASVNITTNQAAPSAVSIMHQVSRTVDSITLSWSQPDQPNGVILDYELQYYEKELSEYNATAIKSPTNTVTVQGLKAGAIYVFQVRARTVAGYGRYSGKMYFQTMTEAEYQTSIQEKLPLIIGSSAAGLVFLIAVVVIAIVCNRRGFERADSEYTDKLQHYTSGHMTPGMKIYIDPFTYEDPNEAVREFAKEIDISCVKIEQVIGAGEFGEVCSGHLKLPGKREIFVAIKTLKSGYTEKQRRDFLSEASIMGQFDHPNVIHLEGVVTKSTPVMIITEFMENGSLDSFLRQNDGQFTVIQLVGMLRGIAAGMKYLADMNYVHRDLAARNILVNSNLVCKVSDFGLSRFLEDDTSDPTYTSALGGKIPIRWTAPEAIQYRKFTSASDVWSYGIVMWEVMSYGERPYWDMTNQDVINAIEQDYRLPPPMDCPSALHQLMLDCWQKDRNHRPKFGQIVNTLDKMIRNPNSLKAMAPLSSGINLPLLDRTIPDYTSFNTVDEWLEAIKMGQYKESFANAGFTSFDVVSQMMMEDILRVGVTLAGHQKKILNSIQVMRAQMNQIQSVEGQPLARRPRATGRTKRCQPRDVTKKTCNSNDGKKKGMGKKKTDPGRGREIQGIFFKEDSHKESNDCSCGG
Grb2 SH2, sequence (P62993 whole entry, looked up): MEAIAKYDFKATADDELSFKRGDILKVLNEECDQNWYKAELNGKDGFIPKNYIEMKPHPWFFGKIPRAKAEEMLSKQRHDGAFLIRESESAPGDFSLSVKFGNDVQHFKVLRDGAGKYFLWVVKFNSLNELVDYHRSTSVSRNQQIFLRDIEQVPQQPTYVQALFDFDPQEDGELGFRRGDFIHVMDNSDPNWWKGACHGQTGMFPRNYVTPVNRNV
FGFR3, sequence (P22607 whole entry, looked up): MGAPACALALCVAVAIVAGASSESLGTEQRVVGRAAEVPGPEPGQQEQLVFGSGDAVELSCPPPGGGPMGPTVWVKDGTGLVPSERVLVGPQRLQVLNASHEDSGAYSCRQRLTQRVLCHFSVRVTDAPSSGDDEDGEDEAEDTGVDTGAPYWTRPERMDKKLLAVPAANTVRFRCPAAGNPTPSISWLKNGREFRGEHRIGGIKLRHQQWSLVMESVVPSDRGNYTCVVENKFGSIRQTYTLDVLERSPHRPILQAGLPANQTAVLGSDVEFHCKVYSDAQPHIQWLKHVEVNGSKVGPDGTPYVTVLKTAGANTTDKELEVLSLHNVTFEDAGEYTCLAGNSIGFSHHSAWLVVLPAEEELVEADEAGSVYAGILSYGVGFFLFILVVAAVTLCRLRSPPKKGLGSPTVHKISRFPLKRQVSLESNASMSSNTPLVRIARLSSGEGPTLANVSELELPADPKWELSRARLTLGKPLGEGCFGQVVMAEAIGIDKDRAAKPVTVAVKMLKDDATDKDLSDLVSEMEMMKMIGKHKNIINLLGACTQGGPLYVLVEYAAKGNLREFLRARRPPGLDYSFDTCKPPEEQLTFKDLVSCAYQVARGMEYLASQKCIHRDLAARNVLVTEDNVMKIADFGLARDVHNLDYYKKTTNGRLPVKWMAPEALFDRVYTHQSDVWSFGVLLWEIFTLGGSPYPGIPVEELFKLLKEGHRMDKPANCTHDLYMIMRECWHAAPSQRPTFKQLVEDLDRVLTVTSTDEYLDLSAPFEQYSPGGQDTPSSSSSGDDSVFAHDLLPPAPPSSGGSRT
MERTK, sequence (Q12866 whole entry, looked up): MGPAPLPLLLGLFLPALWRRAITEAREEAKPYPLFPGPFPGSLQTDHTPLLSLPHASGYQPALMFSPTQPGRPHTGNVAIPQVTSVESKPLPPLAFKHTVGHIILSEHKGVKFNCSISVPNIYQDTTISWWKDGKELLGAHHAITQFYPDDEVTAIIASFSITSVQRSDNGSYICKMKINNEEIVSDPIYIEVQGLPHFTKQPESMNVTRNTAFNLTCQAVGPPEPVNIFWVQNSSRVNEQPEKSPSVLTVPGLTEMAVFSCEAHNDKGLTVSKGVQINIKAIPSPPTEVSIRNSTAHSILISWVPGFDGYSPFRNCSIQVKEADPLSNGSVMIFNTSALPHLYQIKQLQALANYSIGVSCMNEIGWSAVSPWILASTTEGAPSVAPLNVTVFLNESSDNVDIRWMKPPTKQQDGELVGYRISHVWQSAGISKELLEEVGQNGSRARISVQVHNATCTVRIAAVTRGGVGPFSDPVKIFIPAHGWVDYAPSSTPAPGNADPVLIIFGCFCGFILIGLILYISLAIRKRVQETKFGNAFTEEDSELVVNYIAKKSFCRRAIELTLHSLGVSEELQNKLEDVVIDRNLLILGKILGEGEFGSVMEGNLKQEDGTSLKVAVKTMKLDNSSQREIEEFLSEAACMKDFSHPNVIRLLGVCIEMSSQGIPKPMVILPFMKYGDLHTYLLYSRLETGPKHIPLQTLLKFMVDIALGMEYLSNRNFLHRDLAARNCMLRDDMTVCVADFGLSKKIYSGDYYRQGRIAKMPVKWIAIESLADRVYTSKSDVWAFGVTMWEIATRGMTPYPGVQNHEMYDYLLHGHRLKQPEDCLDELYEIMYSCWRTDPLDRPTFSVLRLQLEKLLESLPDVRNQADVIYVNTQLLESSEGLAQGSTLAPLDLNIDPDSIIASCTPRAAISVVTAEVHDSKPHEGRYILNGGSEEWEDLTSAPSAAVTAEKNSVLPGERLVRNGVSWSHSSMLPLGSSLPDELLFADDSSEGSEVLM
Fyn, sequence (P06241 whole entry, looked up): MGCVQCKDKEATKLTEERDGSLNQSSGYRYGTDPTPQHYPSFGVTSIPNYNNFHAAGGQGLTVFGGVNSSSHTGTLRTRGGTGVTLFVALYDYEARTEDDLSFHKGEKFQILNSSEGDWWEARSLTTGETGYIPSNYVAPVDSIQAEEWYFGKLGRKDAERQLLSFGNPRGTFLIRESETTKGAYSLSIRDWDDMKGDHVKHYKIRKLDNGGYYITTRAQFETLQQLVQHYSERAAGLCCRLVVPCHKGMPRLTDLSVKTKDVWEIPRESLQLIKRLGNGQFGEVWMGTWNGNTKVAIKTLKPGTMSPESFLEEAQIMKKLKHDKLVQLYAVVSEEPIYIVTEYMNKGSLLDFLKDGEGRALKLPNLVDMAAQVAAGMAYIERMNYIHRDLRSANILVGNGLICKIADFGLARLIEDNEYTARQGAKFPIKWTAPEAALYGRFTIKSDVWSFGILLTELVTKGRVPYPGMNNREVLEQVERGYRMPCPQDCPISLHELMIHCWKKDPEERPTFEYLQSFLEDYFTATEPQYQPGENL
EPHB1, sequence (P54762 whole entry, looked up): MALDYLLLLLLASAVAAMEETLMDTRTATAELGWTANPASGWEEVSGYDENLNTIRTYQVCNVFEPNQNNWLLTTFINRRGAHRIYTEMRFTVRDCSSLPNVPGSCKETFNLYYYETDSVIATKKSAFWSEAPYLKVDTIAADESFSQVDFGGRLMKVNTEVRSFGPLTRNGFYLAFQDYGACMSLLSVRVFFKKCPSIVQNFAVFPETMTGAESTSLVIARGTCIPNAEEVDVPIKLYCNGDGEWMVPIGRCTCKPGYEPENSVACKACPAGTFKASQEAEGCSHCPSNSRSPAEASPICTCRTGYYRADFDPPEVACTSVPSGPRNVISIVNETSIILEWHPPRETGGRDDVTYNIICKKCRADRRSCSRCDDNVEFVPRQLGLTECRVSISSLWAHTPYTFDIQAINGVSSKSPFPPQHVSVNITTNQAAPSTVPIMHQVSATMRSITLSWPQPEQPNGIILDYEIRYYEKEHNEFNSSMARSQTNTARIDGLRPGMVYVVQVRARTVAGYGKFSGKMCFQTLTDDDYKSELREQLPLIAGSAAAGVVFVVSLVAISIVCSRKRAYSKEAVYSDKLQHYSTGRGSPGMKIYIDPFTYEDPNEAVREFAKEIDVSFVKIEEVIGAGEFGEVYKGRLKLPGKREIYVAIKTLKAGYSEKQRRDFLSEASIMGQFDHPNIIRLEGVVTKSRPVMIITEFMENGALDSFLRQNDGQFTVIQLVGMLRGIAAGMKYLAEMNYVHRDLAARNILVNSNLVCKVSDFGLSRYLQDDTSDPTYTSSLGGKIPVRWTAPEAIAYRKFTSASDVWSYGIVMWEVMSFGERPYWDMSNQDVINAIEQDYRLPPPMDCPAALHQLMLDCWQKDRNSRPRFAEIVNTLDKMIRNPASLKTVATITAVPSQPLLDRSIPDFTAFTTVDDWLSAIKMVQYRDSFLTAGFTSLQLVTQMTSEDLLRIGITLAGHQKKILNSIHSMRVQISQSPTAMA

Sequence | phosphorylation enrichment (EPHB2) | phosphorylation enrichment (FGFR3) | phosphorylation enrichment (FGFR1) | phosphorylation enrichment (Jak2) | phosphorylation enrichment (EPHB1) | phosphorylation enrichment (MERTK) | phosphorylation enrichment (c-Src) | phosphorylation enrichment (Fer (mouse)) | phosphorylation enrichment (c-Abl (mouse)) | phosphorylation enrichment (Fyn) | phosphorylation enrichment (Hck) | phosphorylation enrichment (Fes) | phosphorylation enrichment (AncSZ) | SH2 binding enrichment (SHP2-C SH2) | SH2 binding enrichment (Grb2 SH2) | SH2 binding enrichment (c-Src SH2)
FAKTQYPDIYA [CRX_Y63_V66I] | 0.427 | 0.668 | 0.449 | 0.563 | 0.355 | 0.396 | 0.572 | 0.359 | 0.526 | 0.519 | 0.709 | 0.693 | 0.518 | 1 | 0.881 | 0.533
EEQKKYFNAMK [SCN5A_Y1494_YF] | 0.474 | 0.656 | 0.421 | 0.672 | 0.459 | 0.428 | 0.479 | 0.341 | 0.616 | 0.489 | 0.459 | 0.866 | 0.882 | 0.847 | 0.901 | 0.421
LLTALYFISWG [KCNH2_Y780_R784W] | 0.786 | 1.23 | 0.847 | 1.95 | 1.04 | 3.92 | 2.27 | 0.782 | 1.09 | 1.59 | 2.03 | 1.58 | 1.51 | 0.891 | 1.01 | 0.666
MTFQNYRQALF [FAM20C_Y279_G280R] | 0.572 | 0.57 | 0.444 | 0.867 | 0.477 | 0.494 | 0.462 | 0.451 | 0.657 | 0.576 | 0.469 | 1.02 | 0.909 | 0.792 | 1.13 | 0.51
DPLLTYRFPPK [LMNA_Y481] | 0.349 | 0.446 | 0.452 | 0.515 | 0.422 | 0.434 | 0.635 | 0.292 | 0.578 | 0.502 | 0.43 | 0.513 | 0.597 | 0.911 | 0.921 | 0.542
FRASFYRRGDR [LTK_Y677_YF] | 0.552 | 0.526 | 0.549 | 0.583 | 0.543 | 0.722 | 0.709 | 0.456 | 0.634 | 0.617 | 0.463 | 0.631 | 0.756 | 0.471 | 0.542 | 0.379
LFSGDYFRIQG [DDR2_Y740_YF] | 4.1 | 15.7 | 23.1 | 23.4 | 6.99 | 2.08 | 3.77 | 0.739 | 1.67 | 1.36 | 1.57 | 2.04 | 4.61 | 0.652 | 1.03 | 0.674
SFCFRYCCAAR [SUMF1_Y344_R345C_YF] | 0.611 | 0.723 | 0.504 | 1.02 | 0.659 | 0.445 | 0.397 | 0.517 | 0.7 | 0.487 | 0.436 | 1.23 | 1.25 | 0.764 | 1.02 | 0.755
PLDGESFTLQI [TP53_Y327_Y327S] | 0.93 | 1.05 | 0.634 | 1.26 | 0.731 | 0.549 | 0.616 | 0.552 | 1.23 | 0.569 | 0.619 | 1.67 | 1.64 | 0.706 | 0.663 | 0.422
HAVVDYMRRQK [ATM_Y1915_L1910H] | 1.03 | 1 | 0.799 | 0.892 | 0.701 | 0.654 | 0.539 | 0.535 | 0.595 | 0.634 | 0.694 | 1.14 | 1.16 | 0.364 | 0.6 | 0.381
AFLQTYAHEVS [PCDHGA5_Y753_S754A] | 0.565 | 0.617 | 0.621 | 0.786 | 0.455 | 0.503 | 0.474 | 0.521 | 0.693 | 0.49 | 0.506 | 0.985 | 0.896 | 0.903 | 0.755 | 0.608
QAFSWYQHQRA [NDST1_Y714_R709Q_YF] | 0.71 | 1.02 | 0.687 | 1.43 | 1.03 | 0.569 | 0.371 | 0.863 | 0.731 | 0.658 | 0.547 | 1.64 | 1.61 | 0.86 | 0.778 | 0.709
KYLENYYDLKK [MMP3_Y41] | 2.77 | 4.8 | 7.68 | 0.782 | 7.15 | 0.709 | 1.15 | 0.513 | 0.736 | 2.24 | 2.16 | 0.99 | 0.922 | 0.73 | 1.02 | 0.775
MTRDIYRASFF [ALK_Y1278_A1274T_YF] | 0.462 | 0.677 | 0.572 | 0.621 | 0.519 | 0.464 | 0.592 | 0.386 | 4.15 | 0.587 | 0.89 | 0.73 | 0.657 | 0.563 | 0.811 | 0.529
VHLFAYDWISI [BEST1_Y227_G222V_YF] | 0.868 | 1.17 | 1.41 | 1.04 | 1.06 | 4.12 | 0.651 | 10.4 | 0.69 | 0.589 | 0.804 | 1.38 | 1.27 | 1.36 | 1.3 | 0.972
ATPKGYERDAS [OTC_Y223_P225R] | 0.522 | 0.471 | 0.462 | 0.551 | 0.358 | 0.447 | 0.369 | 0.518 | 0.421 | 0.442 | 0.399 | 0.68 | 0.591 | 0.562 | 0.767 | 0.444
VTGWGYRKLRD [F11_Y521] | 0.517 | 0.419 | 0.392 | 0.655 | 0.364 | 0.51 | 0.479 | 0.385 | 0.477 | 0.463 | 0.42 | 0.703 | 0.792 | 0.472 | 0.798 | 0.505

Sequence | phosphorylation enrichment (EPHB2) | phosphorylation enrichment (FGFR3) | phosphorylation enrichment (FGFR1) | phosphorylation enrichment (Jak2) | phosphorylation enrichment (EPHB1) | phosphorylation enrichment (MERTK) | phosphorylation enrichment (c-Src) | phosphorylation enrichment (Fer (mouse)) | phosphorylation enrichment (c-Abl (mouse)) | phosphorylation enrichment (Fyn) | phosphorylation enrichment (Hck) | phosphorylation enrichment (Fes) | phosphorylation enrichment (AncSZ) | SH2 binding enrichment (SHP2-C SH2) | SH2 binding enrichment (Grb2 SH2) | SH2 binding enrichment (c-Src SH2)
RPFFLYVAFHD [SGSH_Y174] | 0.579 | 0.941 | 0.503 | 1.54 | 0.731 | 0.442 | 0.43 | 0.47 | 1.24 | 0.381 | 0.58 | 1.58 | 1.28 | 0.377 | 0.847 | 0.581
SHPSSYTTHPQ [NIPBL_Y195] | 0.384 | 0.404 | 0.459 | 0.492 | 0.362 | 0.463 | 0.478 | 0.467 | 0.417 | 0.441 | 0.46 | 0.82 | 0.412 | 0.723 | 0.728 | 0.477
SVTCTYSPAFN [TP53_Y126_L130F] | 0.59 | 0.897 | 0.49 | 1.31 | 0.8 | 0.418 | 0.66 | 0.553 | 1 | 0.518 | 0.592 | 1.51 | 1.35 | 0.646 | 0.664 | 0.463
YGLPRYRWLTH [TSPAN12_Y143] | 0.628 | 0.475 | 0.572 | 0.659 | 0.5 | 0.492 | 0.387 | 0.411 | 0.512 | 0.492 | 0.543 | 0.765 | 0.841 | 0.723 | 0.797 | 0.404
PELINYHQHNF [BTK_Y361_S366F] | 0.826 | 0.598 | 0.851 | 1.02 | 0.631 | 0.696 | 0.942 | 0.736 | 0.919 | 0.789 | 0.836 | 1.25 | 1.04 | 0.716 | 1.03 | 0.434
KEGSAYGSQSV [NFKB2_Y868_D865G] | 0.384 | 0.498 | 0.312 | 0.673 | 0.461 | 0.436 | 0.468 | 0.423 | 0.632 | 0.395 | 0.426 | 0.75 | 0.58 | 0.379 | 0.648 | 0.447
HIKHNYECLVY [XRCC5_Y416] | 2.44 | 0.839 | 0.924 | 0.935 | 2.87 | 0.548 | 1.78 | 0.514 | 0.882 | 0.868 | 0.638 | 1.05 | 1.05 | 0.693 | 0.772 | 5.15
SHLLRYLSWTV [CLCNKB_Y93] | 0.528 | 0.7 | 0.684 | 1.06 | 0.553 | 0.37 | 0.368 | 0.478 | 0.781 | 0.468 | 0.544 | 1.23 | 1.24 | 0.724 | 0.9 | 0.553
EHLNRYISDTF [TTLL10_Y446] | 0.473 | 0.567 | 0.428 | 0.535 | 0.44 | 0.393 | 0.42 | 0.434 | 0.655 | 0.434 | 0.51 | 0.641 | 0.737 | 0.652 | 0.9 | 0.462
EAIMTYVSSFY [ACTN4_Y260_K255E] | 0.631 | 0.693 | 0.459 | 1.06 | 0.617 | 0.457 | 0.855 | 0.445 | 0.708 | 0.503 | 0.631 | 1.12 | 1.14 | 0.672 | 0.712 | 0.477
PADCRYYTFPQ [GAMT_Y222_A224T] | 2.18 | 5 | 6 | 4.4 | 3.34 | 11 | 5.45 | 4.15 | 1.7 | 2.82 | 2.64 | 2.01 | 4.04 | 1.36 | 1.01 | 2.15
EWKQKYEESQS [MYH6_Y1462] | 0.616 | 0.65 | 0.499 | 1.04 | 0.525 | 0.357 | 0.395 | 0.44 | 0.706 | 0.49 | 0.528 | 1.08 | 1.02 | 0.672 | 0.897 | 0.545
LEITWYPFDVE [RIPOR2_Y316] | 1.05 | 1.55 | 0.679 | 2.3 | 1.21 | 0.461 | 0.704 | 0.827 | 1.25 | 0.751 | 0.691 | 2.12 | 1.49 | 0.884 | 0.961 | 0.801
EFITRYIDSLK [PSMA7_Y110_A112D_YF] | 0.493 | 0.639 | 0.558 | 0.733 | 0.425 | 0.479 | 0.456 | 0.426 | 0.483 | 0.526 | 0.501 | 0.878 | 0.785 | 0.713 | 0.818 | 0.552
AALLNYKAGRD [GRIN2A_Y737_V734L] | 0.465 | 0.494 | 0.508 | 0.508 | 0.409 | 0.468 | 0.472 | 0.384 | 0.454 | 0.494 | 0.527 | 0.687 | 0.623 | 0.762 | 0.861 | 0.523
TVLGEYASPKG [CYP24A1_Y407_L409S] | 0.612 | 0.482 | 0.405 | 0.561 | 0.508 | 0.513 | 0.468 | 0.371 | 3.4 | 0.498 | 0.578 | 0.619 | 0.733 | 0.793 | 1.02 | 0.596
